# Values quoted from earlier work as cited in publication PMC5969510, “Molecular mechanics of coiled coils loaded in the shear geometry” (Chemical Science, 2018).
# Conditions: unzip geometry
# Source text: To overcome these limitations and to investigate the sequence–structure–mechanics relationship of coiled coils in more systematic detail, site-specific coupling strategies were used in more recent experiments so that the mechanical coordinate was precisely defined. Using coiled coil homodimers, the force was applied to both helices at the same terminus so that the coiled coils were mechanically loaded in the so-called ‘unzip’ geometry.[11],[17],[37],[38]
substance,measurement,value
vimentin: intermediate filament protein with coiled coil (literature),unzipping (unfolding) force,8–15 pN
